Test results as given in publication PMC2943577.

Experiments:
Assay in all cases: tandem affinity purification with Western blot
[1] = molecular target: TAP-tagged Esa1 (S. cerevisiae) (UniProt Q08649)
[2] = molecular target: TAP-tagged Spt7 (S. cerevisiae) (UniProt P35177)
[3] = molecular target: TAP-tagged Ada2 (S. cerevisiae) (UniProt Q02336)
UniProt Q02336, sequence (Q02336 whole entry): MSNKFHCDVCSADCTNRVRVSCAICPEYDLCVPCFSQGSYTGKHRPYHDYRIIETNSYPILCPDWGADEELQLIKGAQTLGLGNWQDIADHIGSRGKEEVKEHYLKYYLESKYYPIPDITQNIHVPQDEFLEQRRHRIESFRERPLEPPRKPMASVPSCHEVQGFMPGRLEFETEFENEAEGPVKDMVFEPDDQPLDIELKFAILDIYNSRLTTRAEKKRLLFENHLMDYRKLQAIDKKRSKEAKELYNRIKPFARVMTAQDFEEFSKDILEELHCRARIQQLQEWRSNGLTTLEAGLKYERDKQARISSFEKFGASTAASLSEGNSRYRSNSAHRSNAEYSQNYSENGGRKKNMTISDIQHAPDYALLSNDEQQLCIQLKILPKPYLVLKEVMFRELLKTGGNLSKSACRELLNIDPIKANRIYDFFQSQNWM

UniProt Q08649, sequence (Q08649 whole entry): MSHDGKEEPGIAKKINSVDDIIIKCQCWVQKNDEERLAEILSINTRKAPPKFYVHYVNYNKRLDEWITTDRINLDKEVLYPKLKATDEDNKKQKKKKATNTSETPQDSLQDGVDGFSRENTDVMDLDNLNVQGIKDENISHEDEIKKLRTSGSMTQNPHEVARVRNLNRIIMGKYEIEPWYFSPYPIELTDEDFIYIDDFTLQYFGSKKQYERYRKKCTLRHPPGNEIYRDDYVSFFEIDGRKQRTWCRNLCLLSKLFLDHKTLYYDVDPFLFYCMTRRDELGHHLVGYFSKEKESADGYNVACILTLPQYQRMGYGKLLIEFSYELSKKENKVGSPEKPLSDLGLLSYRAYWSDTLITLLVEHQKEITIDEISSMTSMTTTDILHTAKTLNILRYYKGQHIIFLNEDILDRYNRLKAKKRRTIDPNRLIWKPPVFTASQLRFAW
UniProt P35177, sequence (P35177 whole entry): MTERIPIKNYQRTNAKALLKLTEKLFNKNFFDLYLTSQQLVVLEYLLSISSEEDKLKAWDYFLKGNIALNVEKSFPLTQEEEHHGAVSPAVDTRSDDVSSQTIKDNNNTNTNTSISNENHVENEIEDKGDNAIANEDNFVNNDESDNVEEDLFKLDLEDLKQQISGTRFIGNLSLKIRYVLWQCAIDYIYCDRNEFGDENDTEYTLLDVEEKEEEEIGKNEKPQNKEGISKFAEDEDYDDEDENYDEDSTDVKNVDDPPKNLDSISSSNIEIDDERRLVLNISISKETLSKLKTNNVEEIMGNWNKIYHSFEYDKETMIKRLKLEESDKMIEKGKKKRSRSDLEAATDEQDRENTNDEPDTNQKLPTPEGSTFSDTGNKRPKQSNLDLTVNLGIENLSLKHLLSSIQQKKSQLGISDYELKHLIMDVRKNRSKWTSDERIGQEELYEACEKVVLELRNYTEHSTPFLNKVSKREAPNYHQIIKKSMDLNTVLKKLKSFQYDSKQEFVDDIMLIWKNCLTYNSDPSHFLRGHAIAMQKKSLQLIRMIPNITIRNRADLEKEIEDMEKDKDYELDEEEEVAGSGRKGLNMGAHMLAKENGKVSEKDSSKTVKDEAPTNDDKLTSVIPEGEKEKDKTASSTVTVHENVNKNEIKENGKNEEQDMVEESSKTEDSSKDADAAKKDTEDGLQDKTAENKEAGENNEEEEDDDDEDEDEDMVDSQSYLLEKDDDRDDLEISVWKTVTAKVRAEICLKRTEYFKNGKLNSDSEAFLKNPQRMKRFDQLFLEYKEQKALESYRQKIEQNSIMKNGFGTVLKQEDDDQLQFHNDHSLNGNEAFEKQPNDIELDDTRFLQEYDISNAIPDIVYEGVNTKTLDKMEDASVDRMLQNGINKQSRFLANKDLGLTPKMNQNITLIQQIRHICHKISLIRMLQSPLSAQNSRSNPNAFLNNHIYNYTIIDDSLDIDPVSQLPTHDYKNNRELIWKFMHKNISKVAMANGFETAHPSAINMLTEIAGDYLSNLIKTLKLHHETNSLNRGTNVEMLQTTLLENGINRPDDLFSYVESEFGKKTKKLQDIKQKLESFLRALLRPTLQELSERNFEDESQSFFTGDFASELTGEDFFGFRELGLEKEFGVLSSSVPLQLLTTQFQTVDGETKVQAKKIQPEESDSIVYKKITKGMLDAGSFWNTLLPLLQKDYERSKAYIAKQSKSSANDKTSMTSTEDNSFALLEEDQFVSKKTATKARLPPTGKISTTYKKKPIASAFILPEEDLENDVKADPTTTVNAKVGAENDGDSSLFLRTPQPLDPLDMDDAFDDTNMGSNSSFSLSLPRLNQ

Q: How did the amount co-purifying, percent of that found for wild-type Tra1 [1] turn out when myc9-Tra1-G3745, P38811 1-3744 was run?
A: < 5%

Q: And the amount co-purifying, percent of that found for wild-type Tra1 [2]?
A: < 5%

Q: And the interaction against wild-type Tra1, percent (reduced to or by is not clear) [3]?
A: 70%
